Experimental data published in patent publication CN111518208A (QICHEN BAITAI BEIJING MEDICAL TECH CO LTD, dated 2020).
Changes are numbered by the printed parent chain.

B1: 抗人CD47单克隆抗体A3 (antibody, V domains shown)
VH: QVQLQQPGAELVRPGASVKLSCKASGHTFTNYWMNWIKQRPEQGLEWIGNIDPYDSETHYNQKFKDKAILTVGKSSSTAYMQLSSLTSEDSAVYYCAIWRGYALDYWGQGTSVTVSS
VL: CDVQITQSPSYLAASPGETITINCRASKSISKFLAWYQEKPGKTNNLLIYSGSTLQSGIPSRFSGSGSGTDFTLTISSLEPEDFAMYYCQQHNEYPWTFGGGTKLEIK
B2: 抗人CD47单克隆抗体A6 (antibody, V domains shown)
VH: QVQLQQSGAELVRPGASVTLSCKASGYSFTDSEMHWVKQTPVYGLEWTGVIDPETGNSAYNQKFKGKATLTADKSSNTAYMELRSLTSEDSAVYYCTRGGVFGYPFDYWGQGTTLTVSS
VL: ENVLTQSPAIMAASLGQKVTMTCSATSSVRSSYLHWYQQKSGASPKPLIHRTSNLASGVPARFSGSGSGTSYSLTISSVEAEDDATYYCQQWRGYPYTFGGGTKLEIK
B3: 抗人CD47单克隆抗体A1 (antibody, V domains shown)
VH: EFQLQQSGPELVKPGASVKMSCKASGYTFTNYVLHWVKQKPGQGLEWIGYFNPYNDDSKYNEKFKGKATLTSDKSSSTAYMELSSLTSEDSAVYYCARGGYYSMDYWGQGTTVTVSS
VL: DVMTQTPLSLPVSLGDQASISCRASQSLAHSNGYTYLQWYLQKPGQSPKLLIYKVSKRFSGVPDRFSGSGSGTDFTLKISRVEAEDLGVYFCSQSTHVPYTFGQGTKVEIK
B4: 抗人CD47单克隆抗体A2 (antibody, V domains shown)
VH: EVQVQQSGPELVKPGASVKISCKASGYSFTGYFMNWVKQSHGKSLEWIGRINPYNGDTFYNQKFKGKATLTVDKSSSTAHMELLSLTSEDSAVYYCGRGGYGGMDYWGQGTSVTVSS
VL: DVLMTQTPLSLPVSLGDQASISCRSSQSIVHSNGNTYLEWYLQKPGQSPKLLIYKVSNRFSGVPDRFSGSGSGTDFTLKISRVEAEDLGVYYCFQGSHVPYTFGGGTKLEIK
B5: 抗人CD47单克隆抗体A5 (antibody, V domains shown)
VH: EVQLQQSGPELVKPGASMRMSCKASGYSFTGYTMHWVKQSHGTNLEWIGLINPYTGGTNYNQKFKGKATLTLDKSSSTAYMELLSLTSEDFAVYYCARMGLAWFAYWGQGTLVTVSA
VL: B4 VL with L3V, I29L, L38F, E39H, Y92F, F94S, G96S, S97T, I111M

Each binder was assayed against 细胞膜表面表达的人CD47蛋白 (human, UniProt Q08722 19-323) (assay: cell-based or functional assay).
Sequence of 细胞膜表面表达的人CD47蛋白 (Q08722 19-323): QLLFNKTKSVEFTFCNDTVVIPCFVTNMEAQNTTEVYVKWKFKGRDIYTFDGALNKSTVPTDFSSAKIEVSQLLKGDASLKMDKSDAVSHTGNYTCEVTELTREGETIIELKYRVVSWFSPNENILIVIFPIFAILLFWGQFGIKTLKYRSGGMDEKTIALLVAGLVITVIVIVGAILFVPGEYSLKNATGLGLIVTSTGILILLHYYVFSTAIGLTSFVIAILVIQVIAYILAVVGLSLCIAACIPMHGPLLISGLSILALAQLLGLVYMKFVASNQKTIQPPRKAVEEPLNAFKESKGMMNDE

First: B1
Second: B2
The “促吞噬曲线的EC50值 (ATP法, C57BL小鼠腹腔原代巨噬细胞对Raji细胞的吞噬)” value (“促吞噬曲线的EC50值” for short) of the first is lower: 0.00391 微克/毫升 for the first, 0.00568 微克/毫升 for the second.

First: B3
Second: B4
The “促吞噬曲线的EC50值” value of the first is lower: 0.00439 微克/毫升 for the first, 0.00462 微克/毫升 for the second.

With B5 the “促吞噬曲线的EC50值” value was 0.00665 微克/毫升.

The binders below were run against T1, 人CD47蛋白胞外区融合蛋白(hCD47-ECD-6His) (human, UniProt Q08722 19-139, limits assumed) (assay: ELISA, hCD47-ECD-6His coated, goat anti-mouse IgG-HRP).
T1 construct: extracellular domain; Made in FreeStyle 293F cells, purified on a nickel column; not shown: linker peptide-6His (连接肽-6His)
T1 sequence (Q08722 19-139 limits assumed): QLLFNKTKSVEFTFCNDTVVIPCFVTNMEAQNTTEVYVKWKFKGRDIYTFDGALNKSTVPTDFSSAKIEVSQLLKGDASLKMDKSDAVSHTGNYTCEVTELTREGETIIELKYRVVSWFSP

B1 and B2 are the same in EC50: 0.01 µg/mL for the first, 0.01 µg/mL for the second.

Going from B3 to B4, the EC50 falls from 0.016 µg/mL to 0.007 µg/mL (2.3-fold).

B5 gave an EC50 of 0.016 µg/mL.
